Experimental findings from publication PMC2120815 are described below.

The test deals with cytoplasmic dynein intermediate chain (Xenopus laevis (endogenous in egg extract)). As to the kind of experiment: co-IP.

Take “cytoplasmic dynein heavy chain (natural protein)”: the interphase/metaphase ratio of the amount brought down is 1.08.
